Measured values taken from paper PMC3537517, “In vitro substrate phosphorylation by Ca^2+/calmodulin-dependent protein kinase kinase using guanosine-5^′-triphosphate as a phosphate donor” (BMC Biochemistry, 2012).

Experiments:
[1] = target: T1, CaMKKα (Rattus norvegicus, UniProt P97756); assay: […]-GTP kinase assay with GST-CaMKIα ([…]-293, K49E); Lineweaver-Burk; format: biochemical
T1 construct: gene Camkk1; recombinant CaMKKα purified from E. coli; with calmodulin (Ca2+/CaM)

[2] = target: T2, CaMKKβ (Rattus norvegicus, UniProt O88831); assay: as above; format: biochemical
T2 construct: gene Camkk2; recombinant CaMKKβ purified from E. coli; with calmodulin (Ca2+/CaM)

[3] = system: Nc1nc2c(ncn2[C@@H]2O[C@H](COP(=O)(O)OP(=O)(O)OP(=O)(O)O)[C@@H](O)[C@H]2O)c(=O)[nH]1; assay: purified protein; conditions: Mg2+, Ca2+ phosphate donor; STO-609 competes with GTP; 30.0 °C
[4] = system: Nc1ncnc2c1ncn2[C@@H]1O[C@H](COP(=O)(O)OP(=O)(O)OP(=O)(O)O)[C@@H](O)[C@H]1O; assay: purified protein; conditions: Mg2+, Ca2+ phosphate donor; 30.0 °C

T1 sequence (P97756 whole entry): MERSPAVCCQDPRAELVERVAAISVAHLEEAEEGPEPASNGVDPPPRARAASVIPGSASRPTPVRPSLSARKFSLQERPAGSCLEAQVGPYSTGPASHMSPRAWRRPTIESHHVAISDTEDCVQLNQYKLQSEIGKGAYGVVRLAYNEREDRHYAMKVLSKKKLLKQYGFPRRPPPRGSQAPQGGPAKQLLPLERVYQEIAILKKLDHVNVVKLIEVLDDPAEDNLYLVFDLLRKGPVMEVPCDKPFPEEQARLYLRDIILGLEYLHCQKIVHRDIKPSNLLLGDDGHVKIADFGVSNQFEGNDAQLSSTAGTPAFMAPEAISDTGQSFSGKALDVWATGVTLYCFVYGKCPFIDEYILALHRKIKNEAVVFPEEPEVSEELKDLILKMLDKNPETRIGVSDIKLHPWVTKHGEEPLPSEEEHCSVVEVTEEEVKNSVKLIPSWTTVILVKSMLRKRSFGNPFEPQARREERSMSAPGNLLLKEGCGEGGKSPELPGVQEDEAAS
T2 sequence (O88831 2-587): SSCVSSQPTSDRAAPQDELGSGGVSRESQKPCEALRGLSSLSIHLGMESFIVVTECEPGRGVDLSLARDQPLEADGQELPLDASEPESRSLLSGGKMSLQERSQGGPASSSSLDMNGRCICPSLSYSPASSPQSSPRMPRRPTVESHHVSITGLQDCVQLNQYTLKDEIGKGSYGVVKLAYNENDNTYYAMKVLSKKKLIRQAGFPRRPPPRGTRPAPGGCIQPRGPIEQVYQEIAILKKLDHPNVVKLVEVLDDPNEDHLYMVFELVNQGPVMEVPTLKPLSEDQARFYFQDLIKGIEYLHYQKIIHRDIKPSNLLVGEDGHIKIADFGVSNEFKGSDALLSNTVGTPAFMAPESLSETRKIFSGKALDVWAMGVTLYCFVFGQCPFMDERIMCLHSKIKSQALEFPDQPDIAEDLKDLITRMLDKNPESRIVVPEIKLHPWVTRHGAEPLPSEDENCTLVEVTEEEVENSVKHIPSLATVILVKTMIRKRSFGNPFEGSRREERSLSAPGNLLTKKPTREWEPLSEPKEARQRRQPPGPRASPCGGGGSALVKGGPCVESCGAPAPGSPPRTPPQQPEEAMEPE

IC50 [1]	IC50 [2]	Compound	Km [3]	Vmax [3]	Km [4]	Vmax [4]
255 nM	38.2 nM	O=C(O)c1ccc2c3c1cccc3c(=O)n1c3ccccc3nc21 [STO-609, 7H-benzimidazo[2,1-a]benz[de]isoquinoline-7-one-3-carboxylic acid]				
		CaMKKβ (Rattus norvegicus)	507 µM	0.077 µmol/min/mg	15 µM	0.286 µmol/min/mg
		CaMKKα (Rattus norvegicus)	444 µM	0.312 µmol/min/mg	15 µM	0.625 µmol/min/mg
